Data reported in US20230287145A1 (Hoffmann-La Roche, published 2023).

Key:
[1] = target: T1, Human CD3ε stalk-Fc(knob)-Avi/CD3δ stalk-Fc(hole) (human); test: SPR, biotinylated human CD3ε/δ on SA chip, TCB at 2 µg/ml; response normalised to anti-huIgG capture and referenced to the unstressed sample; after 2 weeks at pH 7.4/37 °C
T1 construct: Heterodimeric Fc fusion; also called human CD3ε/δ; Human CD3 epsilon stalk-Fc(knob)-Avi
Protocol: (§1) In order to assess the effect of the deamidation site removal and its effect on the stability of the antibodies, the optimized anti-CD3 antibodies (in TCB format) were incubated for 14 days at 37° C., pH 7.4 and at 40° C., pH 6 and further analyzed by SPR for their binding capability to human CD3ε/δ. Samples stored at −80° C. pH 6 were used as reference. The reference samples and the samples stressed at 40° C. were in 20 mM His, 140 mM NaCl, pH 6.0, and the samples stressed at 37° C. in PBS, pH 7.4, all at a concentration of 1.0 mg/ml. After the stress period (14 days) samples in PBS were dialyzed back to 20 mM His, 140 mM NaCl, pH 6.0 for further analysis.
(§2) All SPR experiments were performed on a Biacore T200 instrument (GE Healthcare) at 25° C. with HBS-P+ (10 mM HEPES, 150 mM NaCl pH 7.4, 0.05% Surfactant P20) as running and dilution buffer. Biotinylated human CD3ε/δ (see Example 3, SEQ ID NOs 41 and 42) as well as biotinylated anti-huIgG (Capture Select, Thermo Scientific, #7103262100) were immobilized on a Series S Sensor Chip SA (GE Healthcare, #29104992), resulting in surface densities of at least 1000 resonance units (RU). Anti-CD3 antibodies with a concentration of 2 μg/ml were injected for 30 s at a flow rate of 5 μl/min, and dissociation was monitored for 120 s. The surface was regenerated by injecting 10 mM glycine pH 1.5 for 60 s. Bulk refractive index differences were corrected by subtracting blank injections and by subtracting the response obtained from a blank control flow cell. For evaluation, the binding response 5 seconds after injection end was taken. To normalize the binding signal, the CD3 binding was divided by the anti-huIgG response (the signal (RU) obtained upon capture of the CD3 antibody on the immobilized anti-huIgG antibody). The relative binding activity was calculated by referencing each temperature stressed sample to the corresponding, non-stressed sample.

[2] = target: T1, Human CD3ε stalk-Fc(knob)-Avi/CD3δ …; test: SPR, biotinylated human CD3ε/δ on SA chip, TCB at 2 µg/ml; response normalised to anti-huIgG capture and referenced to the unstressed sample; after 2 weeks at pH 6.0/40 °C
Protocol: as §1, §2

Row | Binder | binding activity [%] [1] | binding activity [%] [2]
1 | TYRP1 TCB containing the parental CD3 binder CD3orig (bispecific antibody, human IgG1, kappa, L234A L235A, also called CD3orig in TCB format) heavy 1: not shown heavy 2: QVQLVQSGAEVKKPGASVKVSCKASGFNIKDYFLHWVRQAPGQGLEWMGWINPDNGNTVYAQKFQGRVTMTADTSTSTVYMELSSLRSEDTAVYYCTRRDYTYEKAALDYWGQGTLVTVSSASTKGPSVFPLAPSSKSTSGGTAALGCLVEDYFPEPVTVSWNSGALTSGVHTFPAVLQSSGLYSLSSVVTVPSSSLGTQTYICNVNHKPSNTKVDEKVEPKSCDKTHTCPPCPAPEAAGGPSVFLFPPKPKDTLMISRTPEVTCVVVDVSHEDPEVKFNWYVDGVEVHNAKTKPREEQYNSTYRVVSVLTVLHQDWLNGKEYKCKVSNKALGAPIEKTISKAKGQPREPQVCTLPPSRDELTKNQVSLSCAVKGFYPSDIAVEWESNGQPENNYKTTPPVLDSDGSFFLVSKLTVDKSRWQQGNVFSCSVMHEALHNHYTQKSLSLSP light 1: DIQMTQSPSSLSASVGDRVTITCRASGNIYNYLAWYQQKPGKVPKLLIYDAKTLADGVPSRFSGSGSGTDFTLTISSLQPEDVATYYCQHFWSLPFTFGQGTKLEIKRTVAAPSVFIFPPSDRKLKSGTASVVCLLNNFYPREAKVQWKVDNALQSGNSQESVTEQDSKDSTYSLSSTLTLSKADYEKHKVYACEVTHQGLSSPVTKSFNRGEC light 2: EVQLLESGGGLVQPGGSLRLSCAASGFTFSTYAMNWVRQAPGKGLEWVSRIRSKYNNYATYYADSVKGRFTISRDDSKNTLYLQMNSLRAEDTAVYYCVRHGNFGNSYVSWFAYWGQGTLVTVSSASVAAPSVFIFPPSDEQLKSGTASVVCLLNNFYPREAKVQWKVDNALQSGNSQESVTEQDSKDSTYSLSSTLTLSKADYEKHKVYACEVTHQGLSSPVTKSFNRGEC | 65% | 95%
2 | TYRP1 TCB containing optimized anti-CD3 antibody clone P004.042 (bispecific antibody, human IgG1, kappa, L234A L235A, 2+1 IgG CrossFab, inverted, with charge modifications; knob-into-hole, P329G L234A L235A; also called CD3opt (P004.042)) heavy 1: not shown heavy 2: QVQLVQSGAEVKKPGASVKVSCKASGFNIKDYFLHWVRQAPGQGLEWMGWINPDNGNTVYAQKFQGRVTMTADTSTSTVYMELSSLRSEDTAVYYCTRRDYTYEKAALDYWGQGTLVTVSSASTKGPSVFPLAPSSKSTSGGTAALGCLVEDYFPEPVTVSWNSGALTSGVHTFPAVLQSSGLYSLSSVVTVPSSSLGTQTYICNVNHKPSNTKVDEKVEPKSCDKTHTCPPCPAPEAAGGPSVFLFPPKPKDTLMISRTPEVTCVVVDVSHEDPEVKFNWYVDGVEVHNAKTKPREEQYNSTYRVVSVLTVLHQDWLNGKEYKCKVSNKALGAPIEKTISKAKGQPREPQVCTLPPSRDELTKNQVSLSCAVKGFYPSDIAVEWESNGQPENNYKTTPPVLDSDGSFFLVSKLTVDKSRWQQGNVFSCSVMHEALHNHYTQKSLSLSP light 1: DIQMTQSPSSLSASVGDRVTITCRASGNIYNYLAWYQQKPGKVPKLLIYDAKTLADGVPSRFSGSGSGTDFTLTISSLQPEDVATYYCQHFWSLPFTFGQGTKLEIKRTVAAPSVFIFPPSDRKLKSGTASVVCLLNNFYPREAKVQWKVDNALQSGNSQESVTEQDSKDSTYSLSSTLTLSKADYEKHKVYACEVTHQGLSSPVTKSFNRGEC light 2: EVQLLESGGGLVQPGGSLRLSCAASGFQFDNYAMNWVRQAPGKGLEWVSRIRTKYNEYATYYADSVKGRFTISRDDSKNTLYLQMNSLRAEDTAVYYCVRASNFPQSYVSYFGYWGQGTLVTVSSASVAAPSVFIFPPSDEQLKSGTASVVCLLNNFYPREAKVQWKVDNALQSGNSQESVTEQDSKDSTYSLSSTLTLSKADYEKHKVYACEVTHQGLSSPVTKSFNRGEC | 98% | 98%
3 | TYRP1 TCB containing optimized anti-CD3 antibody clone P035.064 (bispecific antibody, human IgG1, kappa, L234A L235A, 2+1 IgG CrossFab, inverted, with charge modifications; knob-into-hole, P329G L234A L235A; also called CD3opt (P035.064)) heavy 1: not shown heavy 2: QVQLVQSGAEVKKPGASVKVSCKASGFNIKDYFLHWVRQAPGQGLEWMGWINPDNGNTVYAQKFQGRVTMTADTSTSTVYMELSSLRSEDTAVYYCTRRDYTYEKAALDYWGQGTLVTVSSASTKGPSVFPLAPSSKSTSGGTAALGCLVEDYFPEPVTVSWNSGALTSGVHTFPAVLQSSGLYSLSSVVTVPSSSLGTQTYICNVNHKPSNTKVDEKVEPKSCDKTHTCPPCPAPEAAGGPSVFLFPPKPKDTLMISRTPEVTCVVVDVSHEDPEVKFNWYVDGVEVHNAKTKPREEQYNSTYRVVSVLTVLHQDWLNGKEYKCKVSNKALGAPIEKTISKAKGQPREPQVCTLPPSRDELTKNQVSLSCAVKGFYPSDIAVEWESNGQPENNYKTTPPVLDSDGSFFLVSKLTVDKSRWQQGNVFSCSVMHEALHNHYTQKSLSLSP light 1: DIQMTQSPSSLSASVGDRVTITCRASGNIYNYLAWYQQKPGKVPKLLIYDAKTLADGVPSRFSGSGSGTDFTLTISSLQPEDVATYYCQHFWSLPFTFGQGTKLEIKRTVAAPSVFIFPPSDRKLKSGTASVVCLLNNFYPREAKVQWKVDNALQSGNSQESVTEQDSKDSTYSLSSTLTLSKADYEKHKVYACEVTHQGLSSPVTKSFNRGEC light 2: EVQLLESGGGLVQPGGSLRLSCAASGFDFDNYAMNWVRQAPGKGLEWVSRIRSKHNGYATYYADSVKGRFTISRDDSKNTLYLQMNSLRAEDTAVYYCVRASNFPSSYVSYFGYWGQGTLVTVSSASVAAPSVFIFPPSDEQLKSGTASVVCLLNNFYPREAKVQWKVDNALQSGNSQESVTEQDSKDSTYSLSSTLTLSKADYEKHKVYACEVTHQGLSSPVTKSFNRGEC | 96% | 97%
4 | TYRP1 TCB containing optimized anti-CD3 antibody clone P021.045 (bispecific antibody, human IgG1, kappa, L234A L235A, 2+1 IgG CrossFab, inverted, with charge modifications; knob-into-hole, P329G L234A L235A; also called CD3opt (P021.045)) heavy 1: not shown heavy 2: QVQLVQSGAEVKKPGASVKVSCKASGFNIKDYFLHWVRQAPGQGLEWMGWINPDNGNTVYAQKFQGRVTMTADTSTSTVYMELSSLRSEDTAVYYCTRRDYTYEKAALDYWGQGTLVTVSSASTKGPSVFPLAPSSKSTSGGTAALGCLVEDYFPEPVTVSWNSGALTSGVHTFPAVLQSSGLYSLSSVVTVPSSSLGTQTYICNVNHKPSNTKVDEKVEPKSCDKTHTCPPCPAPEAAGGPSVFLFPPKPKDTLMISRTPEVTCVVVDVSHEDPEVKFNWYVDGVEVHNAKTKPREEQYNSTYRVVSVLTVLHQDWLNGKEYKCKVSNKALGAPIEKTISKAKGQPREPQVCTLPPSRDELTKNQVSLSCAVKGFYPSDIAVEWESNGQPENNYKTTPPVLDSDGSFFLVSKLTVDKSRWQQGNVFSCSVMHEALHNHYTQKSLSLSP light 1: DIQMTQSPSSLSASVGDRVTITCRASGNIYNYLAWYQQKPGKVPKLLIYDAKTLADGVPSRFSGSGSGTDFTLTISSLQPEDVATYYCQHFWSLPFTFGQGTKLEIKRTVAAPSVFIFPPSDRKLKSGTASVVCLLNNFYPREAKVQWKVDNALQSGNSQESVTEQDSKDSTYSLSSTLTLSKADYEKHKVYACEVTHQGLSSPVTKSFNRGEC light 2: EVQLLESGGGLVQPGGSLRLSCAASGFTFSSYAMNWVRQAPGKGLEWVSRIRSKYNNYATYYADSVKGRFTISRDDSKNTLYLQMNSLRAEDTAVYYCVRASNFPSSYVSYFAYWGQGTLVTVSSASVAAPSVFIFPPSDEQLKSGTASVVCLLNNFYPREAKVQWKVDNALQSGNSQESVTEQDSKDSTYSLSSTLTLSKADYEKHKVYACEVTHQGLSSPVTKSFNRGEC | 95% | 99%
5 | TYRP1 TCB containing optimized anti-CD3 antibody clone P035.093 (bispecific antibody, human IgG1, kappa, L234A L235A, 2+1 IgG CrossFab, inverted, with charge modifications; knob-into-hole, P329G L234A L235A; also called CD3opt (P035.093); CD3 P035.093) heavy 1: not shown heavy 2: QVQLVQSGAEVKKPGASVKVSCKASGFNIKDYFLHWVRQAPGQGLEWMGWINPDNGNTVYAQKFQGRVTMTADTSTSTVYMELSSLRSEDTAVYYCTRRDYTYEKAALDYWGQGTLVTVSSASTKGPSVFPLAPSSKSTSGGTAALGCLVEDYFPEPVTVSWNSGALTSGVHTFPAVLQSSGLYSLSSVVTVPSSSLGTQTYICNVNHKPSNTKVDEKVEPKSCDKTHTCPPCPAPEAAGGPSVFLFPPKPKDTLMISRTPEVTCVVVDVSHEDPEVKFNWYVDGVEVHNAKTKPREEQYNSTYRVVSVLTVLHQDWLNGKEYKCKVSNKALGAPIEKTISKAKGQPREPQVCTLPPSRDELTKNQVSLSCAVKGFYPSDIAVEWESNGQPENNYKTTPPVLDSDGSFFLVSKLTVDKSRWQQGNVFSCSVMHEALHNHYTQKSLSLSP light 1: DIQMTQSPSSLSASVGDRVTITCRASGNIYNYLAWYQQKPGKVPKLLIYDAKTLADGVPSRFSGSGSGTDFTLTISSLQPEDVATYYCQHFWSLPFTFGQGTKLEIKRTVAAPSVFIFPPSDRKLKSGTASVVCLLNNFYPREAKVQWKVDNALQSGNSQESVTEQDSKDSTYSLSSTLTLSKADYEKHKVYACEVTHQGLSSPVTKSFNRGEC light 2: EVQLLESGGGLVQPGGSLRLSCAASGFTFSSYAMNWVRQAPGKGLEWVSRIRSKYNNYATYYADSVKGRFTISRDDSKNTLYLQMNSLRAEDTAVYYCVRASNFPASYVSYFAYWGQGTLVTVSSASVAAPSVFIFPPSDEQLKSGTASVVCLLNNFYPREAKVQWKVDNALQSGNSQESVTEQDSKDSTYSLSSTLTLSKADYEKHKVYACEVTHQGLSSPVTKSFNRGEC | 95% | 97%
